Consider six molecules from article PMC7935764 (Structure (London, England : 1993), 2020).

Series [1] addresses IN CCD^F185K (HIV-1 (NL4-3)). As to the kind of experiment: SEC-MALS + AUC + other: SEC-SAXS. Background: SEC sorts molecules by how far they enter the pores of the column.
The target in series [2] is HIV integrase CTD CTD (Human immunodeficiency virus 1) (UniProt O93215). The experiment in a line: NMR. The settings on record: cited from earlier work.
Series [3] has as its target IN CCD^F185K (HIV-1 (NL4-3)). The experiment in a line: AUC.
Series [4] deals with HIV-1 integrase IN^F185H,L242A (HIV-1 (NL4-3)). As to the kind of experiment: SEC-MALS.
For series [5] the target is unchanged. The experiment in a line: AUC.
The series “SEC-MALS” concerns the molecule itself. The experiment in a line: SEC-MALS.
The series “SEC-SAXS” concerns the molecule itself. As to the kind of experiment: SEC-SAXS.

With IN CCD^F185K (domain or fragment), the stoichiometry N (as a rule, the number of molecules, sites or subunits per partner or assembly) in series [1] worked out at 2.
Consider “HIV integrase CTD CTD (from UniProt O93215)”, for which the Kd (in general, the free concentration of one partner at which half of the binding sites on the other are occupied at equilibrium, for simple one-to-one binding) in series [2] is 1 µM.
“HFS-IN(CTD)^220-280(L242A) (from UniProt P12497 221-281) (domain or fragment)” had a KD without BI-224436 in series [3] greater than 1000 µM.
Take HIV-1 integrase IN^F185H,L242A (enzyme): the stoichiometry N in series [4] and in series [5] was 2 throughout.

B1: His6-FLAG-SUMO (HFS)-tagged CTD^220-270, wild type (domain or fragment)
chain: IQNFRVYYRDSRDPVWKGPAKLLWKGEGAVVIQDNSDIKVVPRRKAKIIRD
For the molecule B1, the “stoichiometry N” value in “SEC-MALS” is 2.

B2: CTD^220-270 (domain or fragment)
chain: B1 chain
Regarding B2, the “stoichiometry N” value in the series “SEC-SAXS” came out at 2.
